This passage reports stoichiometry N results from article PMC11843870.

The target of this test is Xn-XptA2 wt (A subunit, TcA, of the ABC toxin complex of Xenorhabdus nematophilus) (Xenorhabdus nematophilus). The test can be described thus: cryo-EM structure; single particle analysis, 1.5 mg/mL protein in 10 mM Tris, 100 mM NaCl, pH 7.5; C5 symmetry.

For the substance “Xn-XptA2 wt (A subunit, TcA, of the ABC toxin complex of Xenorhabdus nematophilus) (natural protein)”, the stoichiometry N turned out to be 5.

Broadly, the stoichiometry N is the number of molecules, sites or subunits per partner or assembly.
